Source: US20140050727A1 (MOCHIDA PHARMACEUTICAL, published 2014)

B1: F1024S-SLPI(D2) with modified linker GSGGGGSGGGGSGGGGS (antibody)
heavy: QIQLVQSGPELKKPGESVKISCKASGYTFTDYAMNWVKQAPGNGLKWMGWINTQTGKPTYADDFKQRFVFSLETSASTAYLQINNLNIEDTATYFCTRSTFYYSSYIYGWYFDFWGPGTMVTVSSASTKGPSVFPLAPCSRSTSESTAALGCLVKDYFPEPVTVSWNSGALTSGVHTFPAVLQSSGLYSLSSVVTVPSSSLGTKTYTCNVDHKPSNTKVDKRVESKYGPPGPSGPAPEFLGGPSVFLFPPKPKDTLMISRTPEVTCVVVDVSQEDPEVQFNWYVDGVEVHNAKTKPREEQFNSTYRVVSVLTVLHQDWLNGKEYKCKVSNKGLPSSIEKTISKAKGQPREPQVYTLPPSQEEMTKNQVSLTCLVKGFYPSDIAVEWESNGQPENNYKTTPPVLDSDGSFFLYSRLTVDKSRWQEGNVFSCSVMHEALHNHYTQKSLSLSLGKGSGGGGSGGGGSGGGGSRRKPGKCPVTYGQCLMLNPPNFCEMDGQCKRDLKCCMGMCGKSCVSPVKA
light: DIVMTQSPTSISISVGERVTMNCKASQNVGSNVDWYQQKTGQSPKLLIYKASNRYTGVPDRFTGSGSGTDFTFTISNMQAVDLAVYYCMQSNTNPPWTFGGGTKLELKRTVAAPSVFIFPPSDEQLKSGTASVVCLLNNFYPREAKVQWKVDNALQSGNSQESVTEQDSKDSTYSLSSTLTLSKADYEKHKVYACEVTHQGLSSPVTKSFNRGEC
B2: F1024S-SLPI(D1D2) (antibody)
heavy: QIQLVQSGPELKKPGESVKISCKASGYTFTDYAMNWVKQAPGNGLKWMGWINTQTGKPTYADDFKQRFVFSLETSASTAYLQINNLNIEDTATYFCTRSTFYYSSYIYGWYFDFWGPGTMVTVSSASTKGPSVFPLAPCSRSTSESTAALGCLVKDYFPEPVTVSWNSGALTSGVHTFPAVLQSSGLYSLSSVVTVPSSSLGTKTYTCNVDHKPSNTKVDKRVESKYGPPGPSGPAPEFLGGPSVFLFPPKPKDTLMISRTPEVTCVVVDVSQEDPEVQFNWYVDGVEVHNAKTKPREEQFNSTYRVVSVLTVLHQDWLNGKEYKCKVSNKGLPSSIEKTISKAKGQPREPQVYTLPPSQEEMTKNQVSLTCLVKGFYPSDIAVEWESNGQPENNYKTTPPVLDSDGSFFLYSRLTVDKSRWQEGNVFSCSVMHEALHNHYTQKSLSLSLGKGSGKSFKAGVCPPKKSAQCLRYKKPECQSDWQCPGKKRCCPDTCGIKCLDPVDTPNPTRRKPGKCPVTYGQCLMLNPPNFCEMDGQCKRDLKCCMGMCGKSCVSPVKA
light: DIVMTQSPTSISISVGERVTMNCKASQNVGSNVDWYQQKTGQSPKLLIYKASNRYTGVPDRFTGSGSGTDFTFTISNMQAVDLAVYYCMQSNTNPPWTFGGGTKLELKRTVAAPSVFIFPPSDEQLKSGTASVVCLLNNFYPREAKVQWKVDNALQSGNSQESVTEQDSKDSTYSLSSTLTLSKADYEKHKVYACEVTHQGLSSPVTKSFNRGEC
B3: F1024S-SLPI(D2) (antibody)
heavy: QIQLVQSGPELKKPGESVKISCKASGYTFTDYAMNWVKQAPGNGLKWMGWINTQTGKPTYADDFKQRFVFSLETSASTAYLQINNLNIEDTATYFCTRSTFYYSSYIYGWYFDFWGPGTMVTVSSASTKGPSVFPLAPCSRSTSESTAALGCLVKDYFPEPVTVSWNSGALTSGVHTFPAVLQSSGLYSLSSVVTVPSSSLGTKTYTCNVDHKPSNTKVDKRVESKYGPPGPSGPAPEFLGGPSVFLFPPKPKDTLMISRTPEVTCVVVDVSQEDPEVQFNWYVDGVEVHNAKTKPREEQFNSTYRVVSVLTVLHQDWLNGKEYKCKVSNKGLPSSIEKTISKAKGQPREPQVYTLPPSQEEMTKNQVSLTCLVKGFYPSDIAVEWESNGQPENNYKTTPPVLDSDGSFFLYSRLTVDKSRWQEGNVFSCSVMHEALHNHYTQKSLSLSLGKGSRRKPGKCPVTYGQCLMLNPPNFCEMDGQCKRDLKCCMGMCGKSCVSPVKA
light: DIVMTQSPTSISISVGERVTMNCKASQNVGSNVDWYQQKTGQSPKLLIYKASNRYTGVPDRFTGSGSGTDFTFTISNMQAVDLAVYYCMQSNTNPPWTFGGGTKLELKRTVAAPSVFIFPPSDEQLKSGTASVVCLLNNFYPREAKVQWKVDNALQSGNSQESVTEQDSKDSTYSLSSTLTLSKADYEKHKVYACEVTHQGLSSPVTKSFNRGEC
B4: modified F1024S-D2(R11S/R15T/Q19K/Y46D) (antibody)
heavy: QIQLVQSGPELKKPGESVKISCKASGYTFTDYAMNWVKQAPGNGLKWMGWINTQTGKPTYADDFKQRFVFSLETSASTAYLQINNLNIEDTATYFCTRSTFYYSSYIYGWYFDFWGPGTMVTVSSASTKGPSVFPLAPCSRSTSESTAALGCLVKDYFPEPVTVSWNSGALTSGVHTFPAVLQSSGLYSLSSVVTVPSSSLGTKTYTCNVDHKPSNTKVDKRVESKYGPPGPSGPAPEFLGGPSVFLFPPKPKDTLMISRTPEVTCVVVDVSQEDPEVQFNWYVDGVEVHNAKTKPREEQFNSTYRVVSVLTVLHQDWLNGKEYKCKVSNKGLPSSIEKTISKAKGQPREPQVYTLPPSQEEMTKNQVSLTCLVKGFYPSDIAVEWESNGQPENNYKTTPPVLDSDGSFFLYSRLTVDKSRWQEGNVFSCSVMHEALHNHYTQKSLSLSLGKGSTVAACNLPIVSGPCTAFIKLWAFDAVKGKCVLFPYGGCQGNGNKFDSEKECREYCGVPGDGDEELLRFSN
light: DIVMTQSPTSISISVGERVTMNCKASQNVGSNVDWYQQKTGQSPKLLIYKASNRYTGVPDRFTGSGSGTDFTFTISNMQAVDLAVYYCMQSNTNPPWTFGGGTKLELKRTVAAPSVFIFPPSDEQLKSGTASVVCLLNNFYPREAKVQWKVDNALQSGNSQESVTEQDSKDSTYSLSSTLTLSKADYEKHKVYACEVTHQGLSSPVTKSFNRGEC

Target: T1, Elastase, Human Neutrophil (human, UniProt P08246 30-247, limits assumed)
T1 sequence (looked up): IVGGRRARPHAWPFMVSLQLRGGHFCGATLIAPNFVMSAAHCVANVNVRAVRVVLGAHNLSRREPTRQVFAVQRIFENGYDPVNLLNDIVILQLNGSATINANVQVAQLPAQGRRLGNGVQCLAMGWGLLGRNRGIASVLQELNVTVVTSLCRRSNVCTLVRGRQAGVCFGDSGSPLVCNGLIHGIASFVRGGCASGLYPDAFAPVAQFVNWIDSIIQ
Assay: cell-based or functional assay

Row | 50% inhibitory concentration (elastase inhibitory activity) | Binder
1 | 11.6 µg/mL | B1
2 | 22.5 µg/mL | B2
3 | 26.9 µg/mL | B3
4 | 4.43 µg/mL | B4

Target: Human Factor Xa (human, UniProt P00742 41-488, limits assumed)
Assay: cell-based or functional assay

Sequence of Human Factor Xa (P00742 41-488 limits assumed): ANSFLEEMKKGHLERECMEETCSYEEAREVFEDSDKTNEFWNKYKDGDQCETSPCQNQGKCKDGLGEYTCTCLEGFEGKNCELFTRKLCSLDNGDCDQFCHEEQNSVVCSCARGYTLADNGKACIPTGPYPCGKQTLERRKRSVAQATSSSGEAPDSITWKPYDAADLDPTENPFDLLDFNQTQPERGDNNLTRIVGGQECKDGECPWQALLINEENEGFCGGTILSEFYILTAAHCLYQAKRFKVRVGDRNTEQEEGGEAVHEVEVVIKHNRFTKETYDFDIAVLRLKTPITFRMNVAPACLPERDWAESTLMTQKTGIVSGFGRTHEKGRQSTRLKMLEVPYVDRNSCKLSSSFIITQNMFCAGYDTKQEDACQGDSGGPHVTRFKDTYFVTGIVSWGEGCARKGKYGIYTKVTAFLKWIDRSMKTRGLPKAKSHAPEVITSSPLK

Row | FXa-inhibiting activity | Binder
5 | ~6 times that of polypeptide AN68 | AACNLPIVRGPCRAFIRLWAFDAVKGKCVLFPYGGCQGNGNKFYSEK (other) [polypeptide Q19R]
6 | ~10 times that of polypeptide AN68 | AACNLPIVRGPCRAFIKLWAFDAVKGKCVLFPYGGCQGNGNKFESEK (other) [polypeptide Q19K/Y46E]
7 | ~3 times that of polypeptide AN68 | AACNLPIVEGPCRAFIQLWAFDAVKGKCVLFPYGGCQGNGNKFESEK (other) [polypeptide R11E/Y46E]
8 | ~10 times that of polypeptide AN68 | AACNLPIVRGPCRAFIRLWAFDAVKGKCVLFPYGGCQGNGNKFESEK (other) [polypeptide Q19R/Y46E]
9 | ~20 times that of polypeptide AN68 | AVLPQEEEGSGMAACNLPIVRGPCRAFIKLWAFDAVKGKCVLFPYGG (other) [polypeptide Q19K/Y46D]
10 | ~16 times that of polypeptide AN68 | AVLPQEEEGSGMAACNLPIVLGPCRAFIKLWAFDAVKGKCVLFPYGG (other) [polypeptide R11L/Q19K/Y46D]
11 | ~18 times that of polypeptide AN68 | AVLPQEEEGSGMAACNLPIVRGPCRAFIRLWAFDAVKGKCVLFPYGG (other) [polypeptide Q19R/Y46D]
12 | ~13 times that of polypeptide AN68 | AVLPQEEEGSGMAACNLPIVEGPCRAFIKLWAFDAVKGKCVLFPYGG (other) [polypeptide R11E/Q19K/Y46E]
13 | ~20 times that of polypeptide AN68 | AVLPQEEEGSGMAACNLPIVQGPCRAFIKLWAFDAVKGKCVLFPYGG (other) [polypeptide R11Q/Q19K/Y46D]
14 | ~5 times that of polypeptide AN68 | AVLPQEEEGSGMAACNLPIVDGPCRAFIKLWAFDAVKGKCVLFPYGG (other) [polypeptide R11D/Q19K/Y46D]
